Source: patent US6034062A, “Bone morphogenetic protein (BMP)-9 compositions and their uses” (Genetics Institute, Inc., priority 1997, dated 2000)

Columns and labels:
[1] = system: BMP-9 receptors expressed on HepG2 cells; experiment: 125I-BMP-9 binding to HepG2 cells; details: HepG2 cells, 125I-BMP-9 and 250-fold excess of unlabeled ligand
Description: BMP-9 responsiveness in parenchymal liver cells is tested by screening four liver cell lines for their ability to bind iodinated, CHO-derived BMP-9. […] Specific binding of BMP-9 to HepG2 cells is carried out by incubating HepG2 cells grown to confluence in Dulbecco's Modified Eagle's Medium (DME) containing 10% heat-inactivated fetal calf serum (FCS) on gelatinized 6 well plates with 2 ng/ml ^125 I-BMP-9 and increasing concentrations of unlabelled BMP-9 in binding buffer (136.9 mM NaCl, 5.37 mM KCl, 1.26 mM CaCl2, 0.64 mM MgSO4, 0.34 mM Na2 HPO4, 0.44 mM KH2 PO4, 0.49 mM MgCl2, 25 mM HEPES and 0.5% BSA, pH 7.4) for 20 hours at 4° C. to achieve binding equilibrium. This incubation follows a one hour preincubation at 37° C. in binding buffer alone. For crosslinking experiments, the cells were incubated with 500 μM disuccinimidyl suberate for 20 minutes at […] following binding. Cell extracts were analyzed on SDS-PAGE. […] To test the binding specificity of the receptors for BMP-9, HepG2 cells were incubated with ^125 I-BMP-9 and a 250-fold excess of different unlabeled ligands.

[2] = system: Articular cartilage explants from calf carpal joints; experiment: Articular cartilage assay (proteoglycan synthesis, sulfate incorporation); type: cell-based; details: 100 ng/ml, calf articular cartilage explants
Description: The effect of BMP-9 on articular cartilage proteoglycan and DNA synthesis is assayed to determine if BMP-9 is involved in the regulation of metabolism of differentiated articular cartilage.
Articular cartilage explants from calf carpal joints are maintained in DMEM with 50 μg/ml ascorbate, 4 mM glutamine and antibiotics for 3 days. Cytokines (rhBMP-2, rhBMP-4, rhBMP-6 and rhBMP-9, IGF-1, bFGF (1-1000 ng/ml), and TGFβ (1-100 ng/ml)) are added to the medium and culture is continued for 3 more days. Medium is changed daily. Twenty-four hours prior to harvest, explants are pulsed with 50 μCi/ml ^35 SO4 or 25 μCi/ml ^3 H-thymidine. Explants are solubilized and separation of free isotope is performed by gel chromatography. Total DNA of each explant is measured by a spectrophotometric assay.

B1: BMP-3: BMP protein used as unlabeled competing ligand (protein)
chain: QWIEPRNCARRYLKVDFADIGWSEWIISPKSFDAYYCSGACQFPMPKSLKPSNHATIQSIVRAVGVVPGIPEPCCVPEKMSSLSILFFDENKNVVLKVYPNMTVESCACR
[1]
  crossreactivity of BMP-9 receptors with unlabeled ligand: no crossreactivity

B2: BMP-5: BMP protein used as unlabeled competing ligand (protein)
chain: AANKRKNQNRNKSSSHQDSSRMSSVGDYNTSEQKQACKKHELYVSFRDLGWQDWIIAPEGYAAFYCDGECSFPLNAHMNATNHAIVQTLVHLMFPDHVPKPCCAPTKLNAISVLYFDDSSNVILKKYRNMVVRSCGCH
[1]
  crossreactivity of BMP-9 receptors with unlabeled ligand: no crossreactivity

B3: BMP-7: BMP protein used as unlabeled competing ligand (protein)
chain: STGSKQRSQNRSKTPKNQEALRMANVAENSSSDQRQACKKHELYVSFRDLGWQDWIIAPEGYAAYYCEGECAFPLNSYMNATNHAIVQTLVHFINPETVPKPCCAPTQLNAISVLYFDDSSNVILKKYRNMVVRACGCH
[1]
  crossreactivity of BMP-9 receptors with unlabeled ligand: no crossreactivity

B4: BMP-12: BMP protein used as unlabeled competing ligand (protein, UniProt Q7Z4P5 322-450, looked up)
Growth/differentiation factor …: TALAGTRTAQGSGGGAGRGHGRRGRSRCSRKPLHVDFKELGWDDWIIAPLDYEAYHCEGLCDFPLRSHLEPTNHAIIQTLLNSMAPDAAPASCCVPARLSPISILYIDAANNVVYKQYEDMVVEACGCR
[1]
  crossreactivity of BMP-9 receptors with unlabeled ligand: no crossreactivity

B5: BMP-4: BMP protein, cytokine in cartilage assay and competing ligand (protein)
chain: SPKHHSQRARKKNKNCRRHSLYVDFSDVGWNDWIVAPPGYQAFYCHGDCPFPLADHLNSTNHAIVQTLVNSVNSSIPKACCVPTELSAISMLYLDEYDKVVLKNYQEMVVEGCGCR
[2]
  proteoglycan synthesis: significantly more active in stimulating proteoglycan synthesis
[1]
  crossreactivity of BMP-9 receptors with unlabeled ligand: limited crossreactivity

B6: BMP-6: BMP protein, cytokine in cartilage assay and competing ligand (protein)
chain: SASSRRRQQSRNRSTQSQDVARVSSASDYNSSELKTACRKHELYVSFQDLGWQDWIIAPKGYAANYCDGECSFPLNAHMNATNHAIVQTLVHLMNPEYVPKPCCAPTKLNAISVLYFDDNSNVILKKYRNMVVRACGCH
[2]
  proteoglycan synthesis: significantly more active in stimulating proteoglycan synthesis
[1]
  crossreactivity of BMP-9 receptors with unlabeled ligand: no crossreactivity

B7: TGF-β2: transforming growth factor β2 (protein)
chain: ALDAAYCFRNVQDNCCLRPLYIDFKRDLGWKWIHEPKGYNANFCAGACPYLWSSDTQHSRVLSLYNTINPEASASPCCVSQDLEPLTILYYIGKTPKIEQLSNMIVKSCKCS
[1]
  crossreactivity of BMP-9 receptors with unlabeled ligand: no crossreactivity
